Results taken from patent publication US20150094219A1.

Key:
GFP^2-RG-RLuc2 (GTR2) = GFP^2-RG-RLuc2 (GTR2) (UniProt P27652)
[1] = target: GFP^2-RG-RLuc fusion protein (UniProt P27652)
[2] = target: thrombin protease (Amersham Biosciences); experiment: cell-based or functional assay

Sequence of GFP^2-RG-RLuc fusion protein (P27652 other isoform, or with tags, fused parts or gaps): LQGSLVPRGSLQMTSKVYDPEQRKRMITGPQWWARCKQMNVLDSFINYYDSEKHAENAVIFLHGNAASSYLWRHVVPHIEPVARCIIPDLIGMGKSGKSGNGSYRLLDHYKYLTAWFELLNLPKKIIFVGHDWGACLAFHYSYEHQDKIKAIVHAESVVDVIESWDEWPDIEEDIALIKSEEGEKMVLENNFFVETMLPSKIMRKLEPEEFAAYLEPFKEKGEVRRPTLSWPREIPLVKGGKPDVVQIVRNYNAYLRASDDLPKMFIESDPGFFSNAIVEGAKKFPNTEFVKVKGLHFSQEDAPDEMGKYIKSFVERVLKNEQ
Sequence of Recombinant hirudin from yeast (Sigma) (P01050 whole entry): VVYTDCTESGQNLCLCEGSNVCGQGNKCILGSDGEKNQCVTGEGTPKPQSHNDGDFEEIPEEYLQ
Sequence of GFP^2-RG-RLuc2 (GTR2) (P27652 other isoform, or with tags, fused parts or gaps): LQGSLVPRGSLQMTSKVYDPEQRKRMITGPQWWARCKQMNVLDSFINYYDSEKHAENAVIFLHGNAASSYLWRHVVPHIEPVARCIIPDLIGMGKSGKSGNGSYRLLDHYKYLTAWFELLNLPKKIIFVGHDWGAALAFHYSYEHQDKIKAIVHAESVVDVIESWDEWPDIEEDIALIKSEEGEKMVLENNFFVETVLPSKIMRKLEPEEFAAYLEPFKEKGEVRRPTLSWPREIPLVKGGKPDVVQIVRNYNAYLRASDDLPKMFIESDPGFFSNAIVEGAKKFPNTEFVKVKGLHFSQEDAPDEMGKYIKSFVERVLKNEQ

| Substance | change of BRET^2 ratio of GTR2 after 2 units of thrombin in diluted milk and orange juice (GFP^2-RG-RLuc2 (GTR2)) | BRET^H ratio following thrombin cleavage [1] | SDS-PAGE of the sensor after thrombin treatment [1] | bioluminescence spectrum of the sensor after thrombin [1] | change of BRET^2 ratio (GFP/RLuc) at 270 pM thrombin [1] [fold] | decrease in BRET^2 signal, on-chip mixing of 1 µM sensor with 540 nM thrombin and substrate [1] | decrease of the BRET^H ratio following thrombin cleavage [1] | detection limit for thrombin, microchip BRET^H [1] [pM] | detection limit for thrombin, microplate BRET^H [1] [pM] | hybrid BRET ratio following thrombin cleavage [1] | lowest thrombin concentration observable in real time (120 seconds), side-by-side network [1] [nM] | lowest thrombin concentration tested and detected, pancake stack network [1] | thrombin concentration detected easily, pancake stack network (478 second residence time) [1] | upper end of the linear change of BRET^H ratio with thrombin concentration, microfluidic [1] | upper end of the linear change of BRET^H ratio with thrombin concentration, microplate [1] | BRET^H ratio of the sensor with thrombin after pre-addition of hirudin [2] |
| --- | --- | --- | --- | --- | --- | --- | --- | --- | --- | --- | --- | --- | --- | --- | --- | --- |
| thrombin protease (Amersham Biosciences) | Thrombin activity was detected in 1/10 dilutions of milk and orange juice | from 1.11±0.06 to 0.75±0.04 | the fusion protein was cleaved into two components with molecular weights of 32.4 KDa and 36.4 KDa | Upon thrombin cleavage the green component of the spectrum was reduced | 10 | Approximately 75% decrease in BRET^2 signal | by approximately 32% | 27 | 310 | 0.79 | 540 | Thrombin was detected down to 14 nM, the lowest concentration tested | 27 nM thrombin could be detected easily | up to 0.24 nM for microfluidic measurements | 2.7 nM for microplate measurements |  |
| Recombinant hirudin from yeast (Sigma) (from UniProt P01050 1-65) |  |  |  |  |  |  |  |  |  |  |  |  |  |  |  | 1.08 |
